In PMC9979629 (Antiviral Research, 2023):
Numbering of substitutions follows the chain as printed.

B1: K102.1 (antibody, V domains shown)
VH: EVQLLESGGGLVQPGGSLRLSCAASGFTFSDYAMSWVRQAPGKGLEWVSWIYSGSGNKYYADSVKGRFTISRDNSKNTLYLQMNSLRAEDTAVYYCARFPIARTSNSQSSYDGMDVWGQGTLVTVSS
VL: QSVLTQPPSASGTPGQRVTISCSGSSSNIGSNAVSWYQQLPGTAPKLLIYADNKRPSGVPDRFSGSKSGTSASLAISGLRSEDEADYYCGAWDSSLNAYVFGGGTKLTVL
B2: K102.2 (antibody, V domains shown)
VH: EVQVLESGGGLVQPGGSLRLSCAASGFTFSSYDMSWVRQAPGKGLEWVSGISYSGGSTYYADSVKGRFTISRDNSKNTLYLQMNSLRAEDTAVYYCARDVNFVPLVTFDYWGQGTLVTVSS
VL: B1 VL with I20L, S23T, A33S, S35T, A51D, K54Q, A91T, S94Y, N97S

Molecular target: His-tagged wild-type SARS-CoV-2 RBD (SARS-CoV-2, UniProt P0DTC2)
Experiment: ELISA

Binder | binding result
B1 | binds
B2 | binds
